assay: yeast display, Sf9 membrane polyspecificity reagent, FACS + sequencing; frameworks hold sequencing errors
Outline: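 A synthetic nanobody library was expressed on Saccharomyces cerevisiae BJ5465 by galactose induction for 36–48 hours. The library was stained for 1 hour at 4 °C with 10% biotinylated, detergent-solubilized Sf9 membrane reagent and enriched with streptavidin microbeads before FACS. Low and high (top ~1%) gates were set on anti-HA fluorescence for expression and streptavidin fluorescence for reagent binding, and each polyreactivity label reflects the gate of origin.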

Sequence	polyreactivity (PSR sort gate)
QVQLVESGGGLVQAGGSLRLSCAASGGIFAWNAMGWYRQAPGKERELVAAISGRGGSTTYADSVKGRFTISRDNAKNTVYLQMNSLKPEDTAVYYCAKRWYSGWYKYDYWGQGTQVTVSS	high polyreactivity
QVQLVESGGGLVQAGGSLRLSCAASGGIFAYYGMGWYRQAPGKERELVAAIWIGGNTYYADSVKGRFTISRDNAKNTVYLQMNSLKPVDTAVYYCATEGFVYSWLWEFEYWGQGTQVTVSS	low polyreactivity
QVQLVESGGGLVQAGGSLRLSCAASGGIFDFYAMGWYRQAPGKERELVAAIRYGGSSTYYADSVKGRFTISRDNAKNTVYLLLNSLKPEDTAVYYCAAEPFSWDTWVDYDYWGQGTQVTVSS	low polyreactivity
QVQLVESGGGLVQAGGSLRLSCAASGGIFDTYVMGWYRQAPGKERELVAAITWSGGSTYYADSVKGRFTISRDNAKNTVYLQMNSLKPEDTAVYYCAASGYPIYHDDYWGQGTQVTVSS	low polyreactivity
QVQLVESGGGLVQAGGSLRLSCAASGGIFFINAMGWYRQAPGKERELVAAISISDGSTYYADSVKGRFTISRDNAKNTVYLQMNSLKPEDTAVYYCAAEGFDWDSPEMEYWGQGTQVTGSS	low polyreactivity
QVQLVESGGGLVQAGGSLRLSCAASGGIFFIYAMGWYRQAPGKERELVAAISWGGGSTYYADSVKGRFTISRDNAKNTFYLQMNSLKPEDTAVYYCAARLYGRGYYYWGQGTQVTVSS	high polyreactivity
QVQLVESGGGLVQAGGSLRLSCAASGGIFGKYVMGWYRQAPGKERELVAGISRSAGITYYADSVKGRFTISRDNAKHTVYLQMNSLIPEDTAVYYCNARAWSYPSYHVGYDYWGQGTQVTVSS	high polyreactivity
QVQLVESGGGLVQAGGSLRLSCAASGGIFGSYAMGWYRHAPGKERELVADITQSGGRTRYADSVKGRFTISRDNAKNTVYLQMNSLKPEDTAVYYCNAQDVDSGDDYDYWGQGTQVTVSS	low polyreactivity
QVQLVESGGGLVQAGGSLRLSCAASGGIFGSYAMGWYRQAPGKERELVAAISGGSTYYADSVKGRFTISRDNAKNTVYLQMNSLKPEDTAVYYCAAGWSVWYQDFDYWGQGTQVTVSS	high polyreactivity
QVQLVESGGGLVQAGGSLRLSCAASGGIFGVYAMVWYRQAPGKERELVAAISQSDTSTYYADSVKGRFTISRDNAKNTVYLQMNSLKPEDTAVYYCADEYYLDYYTWFDYWGQGTQVTVSS	high polyreactivity
QVQLVESGGGLVQAGGSLRLSCAASGGIFGYYAMGWYRQAPGKERELVAAISISGGRTYYADSVKGRFTISRDNAKNTVYLQMNSLKPEDTAVYYCKAARKVYVRGRGSEMDYWGQGTQVTVSS	low polyreactivity
QVQLVESGGGLVQAGGSLRLSCAASGGIFHPNDMGWYRQAPGKESELVAVIDSGDITNYADSVKGRFTISRDNAKNTVYLQMNSLKPEDTAVYYCAADSYSYFTDDHGYWGQGTQVTVSS	high polyreactivity
QVQLVESGGGLVQAGGSLRLSCAASGGIFHVYGMGWYRQAPGKERELVAAISYSGASTSYADSVKGRFTISRDNAKNTVYLQMNSLKPEDTAVYYCAAKVYYRRYRSGYDYWGQGTQVTVSS	high polyreactivity
QVQLVESGGGLVQAGGSLRLSCAASGGIFHYYAMGWYRQAPGKERELVAAISWNTGSTYYADSVKGRFTISRDNAKNTVYLQINSLKPEDTAVYYCAASSRRSYLPEGQGEYWGQGTQVTVSS	high polyreactivity
QVQLVESGGGLVQAGGSLRLSCAASGGIFIDYTMGWYRQAPGKERELVAAITRGGSTYYADSVKGRFTISRDNAKNTVYLQMNSLKPEDTAVYYCAARANTPVGHNRFGYWGQGTQVTVSS	low polyreactivity
QVQLVESGGGLVQAGGSLRLSCAASGGIFIGYAMGWYRQAPGKERELVAAISYSGGSTYYADSVKGRFTISRDNAKNTVYLQMNSLKPEDTAVYYCAAQVDRKYRWFNSWGQGTQVTVSS	high polyreactivity
QVQLVESGGGLVQAGGSLRLSCAASGGIFIRYAMGWYRQAPGKEREFVAAIRWRGTNTYYADSVKGRFTISRDNAKNTVYLQMNSLKPEDTAVYYCAARPYYITRYKGMDYWGQGTQVTVSS	high polyreactivity
QVQLVESGGGLVQAGGSLRLSCAASGGIFKAYAMGWYRQAPGKEREFFAAITSSGGRTSYADSVKGRFTISRDNAKNNVYLQKNSLKQEDTAVYYCAAYGDGIVNSWDSYSEMDYWGQGTQVTVSS	low polyreactivity
QVQLVESGGGLVQAGGSLRLSCAASGGIFKRNTMGWYRLAPGKERELVAAISRSGGSTYYADSVKGRFTISRDNAKNTVYLQMNSLKPEDTAVYYCARRFPYNYYVYGEDYWGQGTQVTVSS	high polyreactivity
QVQLVESGGGLVQAGGSLRLSCAASGGIFKRNTMGWYRQAPGKERELVAGISWTGGRTYYADSVKGRFTISRDNAKNTVYLHMNSLKPEDTAVYYCAAKPLQGVRRVEYWGQGTQVTVSS	high polyreactivity
QVQLVESGGGLVQAGGSLRLSCAASGGIFKVYGMRWYRQAPGKERELVAAISWTTGGTYYADSVKGRFTISRDNAKITVYLQMNSLKQEDTAVYYCAAEYADSWSAFDWNYYYWGQGTQVTVSS	high polyreactivity
QVQLVESGGGLVQAGGSLRLSCAASGGIFLVNDMGWYRPAPGKEWELVAAITSGGGTYYADSVKGRFTISRDNAKNTVYLQMNSLKPEDTAVYYCARDTYRQIVSNESYGYWGQGTQVTVSS	low polyreactivity

Sequence	polyreactivity (PSR sort gate)
QVQLVESGGGLVQAGGSLRLSCAASGGIFNINAMGWYRQAPGKERELVASIRGSGGRTYYADSVKGRFTISRDNAKNTVYLQMNSLKPEDTAVYYCNAESYSTWSFGHRYEYDYWGQGTQVTVSS	low polyreactivity
QVQLVESGGGLVQAGGSLRLSCAASGGIFNRNAMGWYRQAPGKERELVAAISSGGGSTYYADSVKGRFTISRDNAKNTVYLQMNSLKPEDTAVYYCARDSYHLYIQPFGYWGQGTQVTVSS	low polyreactivity
QVQLVESGGGLVQAGGSLRLSCAASGGIFPAYAMGWYRQAPGKERELVASISSSGGSTYYADSVKGRFTISRDNAKNTVYLQMNSLKPEDTAVYYCNVAQYLRARRPVDYWGQGTQVTVSS	high polyreactivity
QVQLVESGGGLVQAGGSLRLSCAASGGIFPGNAMGWYRPAPGKERELVATISYSGGSTYYADSVKGRFTISRDNAKNTVYLQMNSLKPEDTAVYYCAARGYKPTRSRRTEYGYWGQGTQVTVSS	high polyreactivity
QVQLVESGGGLVQAGGSLRLSCAASGGIFPLNAMGWYRQAPGKERELVAAISRRGGSTYYADSVKGRFTISRDNAKNTVYLQMNSLKPEDTAVYYCAAVTVRKFYKGINYWYEYWGQGTQVTVSS	high polyreactivity
QVQLVESGGGLVQAGGSLRLSCAASGGIFPYYAMGWYRQAPGKERELVAGISQNDGRTYYADSVKGRFTISRDNAKNTVYLQMNSLKPEDTAVYYCATDYWYPRYGYWGQGTQVTVSS	low polyreactivity
QVQLVESGGGLVQAGGSLRLSCAASGGIFRGYAMGWYRQAPGKERELVAAITKRGGRTYYADSVKGRFTISRDNAKNTVYLQMNSLNPEDTAVFYCAADYYAAYHLPDLDYDYWGQGTQVTVSS	high polyreactivity
QVQLVESGGGLVQAGGSLRLSCAASGGIFRGYVMGWYRQAPGKERELVAAISYSGGNTYYADSVKGRFTISRDNAKNTVYLQMNSLKPEDTAVYYCDTVRSDFHSDDYWGQGTQVTVSS	low polyreactivity
QVQLVESGGGLVQAGGSLRLSCAASGGIFRLYGMGWYRQAPGKERELVAAIRQSGGRTYYADSVKGRFTISRDNAKNTDYLQMNSLKPEDTAVYYCAADLLYRSSGTVRSDYSRYDYWGQGTQVTVSS	low polyreactivity
QVQLVESGGGLVQAGGSLRLSCAASGGIFRLYGMGWYRQAPGKERELVAAIRQSGGRTYYADSVKGRFTISRDNAKNTVYLQMNSLKPEDTAVYYCAADLLYRSSGTVRSDYSRYDYWGQGTQVTVSS	low polyreactivity
QVQLVESGGGLVQAGGSLRLSCAASGGIFRNYAMGWYRQAPGKERELVARISSAGSTNYADSVKGRFTISRDNAKNTVYLQMNSLKPEDTAVYSCAAYPYVGYVSFSAYDYWGQGTQVTVSS	low polyreactivity
QVQLVESGGGLVQAGGSLRLSCAASGGIFRSYTMGWYRQAPGKERELVAAISRSGGRTYYADSVKGRFTISRDNAKNTVYLQMNSLKPEDTAVYYCAAYVRSATLRVNYGYWGQGTQVTVSS	high polyreactivity
QVQLVESGGGLVQAGGSLRLSCAASGGIFRWYTMGWYRPAPGKERELVAAITGSGGRTFYADSVKGRFTISRDNAKNTVYLQMNSLKPEDTAVYYCAKPQAQVGGYWGYDYWGQGTQVTVSS	high polyreactivity
QVQLVESGGGLVQAGGSLRLSCAASGGIFRYYAMGWYRQAPGKERELVAAISKRGGSTYYADSVKGRFTISRDNAKNTVYLQMNSLKPEDTAVYYCAAEGYYGSSYGYWGQGTQVTVSS	high polyreactivity
QVQLVESGGGLVQAGGSLRLSCAASGGIFRYYAMGWYRQAPGKERELVAAISKSGGRTYYADSVKGRFTISRDNAKNTVYLQMNSLKPEDTAVYYCAADLYPFSRNTRYQFLYNYWGQGTQVTVSS	low polyreactivity
QVQLVESGGGLVQAGGSLRLSCAASGGIFRYYAMGWYRQAPGKERELVAAISSGGRTYYADSVKGRFTISRDNAKNTVYLQMNSLKPEDTAVYYCNADRYWGYDYWGQGTQVTVSS	high polyreactivity
QVQLVESGGGLVQAGGSLRLSCAASGGIFSAYAMGWSRQAPGKERELVAVINGSGSNTYYADSVKGRFTISRDNAKNTVYLQMNSLKPEDTAVYYCAARVYVSRSKRLNYWGQGTQVTVSS	high polyreactivity
QVQLVESGGGLVQAGGSLRLSCAASGGIFSAYVMGWSRQAPGKERELVAAITRRGGSTYYADSVKGRFTISRDNAKNTVYLQMNSLKPEDTAVYYCAALLRGQDRTMDYWGQGTQVTVSS	high polyreactivity
QVQLVESGGGLVQAGGSLRLSCAASGGIFSRYAMGWYRQAPGKEREFVAAISFSGASTYYADSVKGRFTISRDNAKNTVYLQMNSLKPEDTAVYYCAAYWDAEGRRYTRLDYWGQGTQVTVSS	low polyreactivity
QVQLVESGGGLVQAGGSLRLSCAASGGIFSSYAMGWYRPAPGKERELVAAIDSDGTTYYADSVKGRFTISRDNAKNTVYLQMNSLKPEDTAVYYCATGYPVRYRGYLNWSYYAYDYWGQGTQVTVSS	low polyreactivity
QVQLVESGGGLVQAGGSLRLSCAASGGIFSYNVMGWYRQAPGKERELVAAITRGGSTYYADSVKGRFTISRDNAKNTVYLQMNSLKPEDTAVYYCAAVRNYLWTGYDYWGQGTQVTVSS	high polyreactivity
